Assay results: article PMC5832032, “Structural Basis for pH-Dependent Oligomerization of Dihydropyrimidinase from Pseudomonas aeruginosa PAO1” (Bioinorganic Chemistry and Applications, 2018)
Values joined by “and” are separate entries in the source; they are usually repeats but may differ in a detail not shown here. Equal values may be shown once.

Target: the molecule itself
Assay: SEC; Superdex 200 prep grade, purified protein 5 mg/mL in Buffer C (20 mM MES, 100 mM NaCl, pH 5.9), 0.5 mL/min; masses estimated against standard proteins; dimers and tetramers coexist

B1: Pseudomonas aeruginosa PAO1 dihydropyrimidinase (enzyme)
chain: MSLLIRGATVVTHEESYRADVLCANGLIQAIGENLETPSGCDVLDGGGQYLMPGGIDPHTHMQLPFMGTVASEDFFSGTAAGLAGGTTSIIDFVIPNPRQSLLEAFHTWRGWAQKSAADYGFHVAITWWSDEVAREMGELVAQHGVNSFKHFMAYKNAIMAADDTLVASFERCLELGAVPTVHAENGELVFHLQQKLLAQGLTGPEAHPLSRPPQVEGEAASRAIRIAETLGTPLYLVHISSREALDEIAYARAKGQPVYGEVLAGHLLLDDSVYRHPDWATAAGYVMSPPFRPVEHQEALWRGLQSGNLHTTATDHCCFCAEQKAMGRDDFSKIPNGTAGIEDRMALLWDAGVNSGRLSMHEFVALTSTNTAKIFNLFPRKGAIRVGADADLVLWDPQGSRTLSAATHHQRVDFNIFEGRTVRGIPSHTISQGKLLWAAGDLRAEPGAGRYVERPAYPSVYEVLGRRAERQRPVAVER
modifications: carboxylated lysine in the active site (position not given)
notes: dihydropyrimidinase of Pseudomonas aeruginosa PAO1; two zinc ions per monomer in the active site; also called P. aeruginosa dihydropyrimidinase; pseudomonal dihydropyrimidinase
B1 was tested, and the “stoichiometry N” value was 2 and 4.
